One substance from PMC6547725 can be followed below.

The assay addresses KRAS (aa 1–170, Homo sapiens), wild type (Homo sapiens) (UniProt P01116).

In the case of “RasGAP (aa 722–1056, Homo sapiens) (domain or fragment)”, the GTPase activity of KRAS wild type (GTP hydrolysis over time, HPLC) with 0.25 μM RAS-GAP; at 2.5 μM and 25 μM too fast to be resolved amounted to 3.5 fold.
